Columns and labels:
Test in all cases: cell-based or functional assay
TALE(Ngn2)-NLS-CRY2PHR = biological target: TALE(Ngn2)-NLS-CRY2PHR
[1] = biological target: LITE 1.9.1 TALE-CIB1 construct (mutated NLS, Δ318-334, AD5 NES)
[2] = biological target: LITE2.0 TALE-CIB1 component

## CIB1-NLS-VP64_2A_GFP
TALE(Ngn2)-NLS-CRY2PHR
  Neurog2 expression (qPCR) after 0.5 h of light stimulation, vs YFP samples: 5 fold
  Neurog2 expression (qPCR), peak at 12 h of light stimulation, vs YFP samples: 19 fold

## CRY2PHR-NLS-VP64_2A_GFP
[1]
  background mRNA increase (no light), LITE1.9.1: 1.06 fold
  light induction (light/no-light), LITE1.9.1: 4 fold

## LITE2.0 CRY2PHR-VP64 component
[2]
  light induction (light/no-light ratio of Neurog2 expression), LITE2.0: 20.4

Source: patent US20190390204A1
